Reference: PMC4447067

How the values were obtained:
Details in all cases: GMSA: K-glu100 buffer (40 mM HEPES pH 8.0, 10 mM MgCl2, 100 mM K glutamate, 4 mM DTT, 500 ug/ml BSA), 15 min at 37 C, 1 nM DNA, 18-150 nM RNA polymerase …
[1] = biological target: T1, EsigmaS RNA polymerase holoenzyme (reconstituted) (UniProt P13445+P0A7Z4+P0A8V2+P0A8T7+P0A800); assay: KMnO4 footprinting
[2] = biological target: T2, Esigma70 RNA polymerase holoenzyme (reconstituted) (UniProt P00579+P0A7Z4+P0A8V2+P0A8T7+P0A800); assay: KMnO4 footprinting
[3] = biological target: T1, EsigmaS RNA polymerase holoenzyme (reconstituted); assay: EMSA
[4] = biological target: T2, Esigma70 RNA polymerase holoenzyme (reconstituted); assay: EMSA

Row | Sequence | binding [1] | binding [2] | binding [3] | binding [4]
1 | GATGGCGATAACTTCACTGGTGCGAAATGCGACCGAAGCAACCGCGCCATTACCGTCAATAGTAATCATATGACACCCTTACATTGCGCAAATGAGGGGCGCACGAAATTGCTGCGCGCCCAGTAGTAATCTTTCAATTTTAGCAAATGGCTTTCTTCTGCATTTTCGCTTTTGTGTCCCCCACATCAGCGTAATGAATGTTTTGATCAAACAGAGGGCAAAAAAATAGCCATAAAAAAGTAAAAATGCG (double strand) [ydbK promoter fragment] | binds | binds | binds | –
2 | TATTCAGTCGCTGAAAAGCCGCTACGGCGAAAGTGAAGAGATCCTGTCGCTGCTTAATCTTTATCATAATCTGCTGCGGGAATGGTCGGAGATCTGATGCTTGAACTGCCCGAGTTCGTCCCTGGATTAGCTACACTTAACTGTACAAGTATTGATATGGGGAGGTCGATATGGCATCCGGTTGGGCTAACGATGACGCCGTCAACGAACAGATCAACAGTACAATT (double strand) [ybiI promoter fragment] | binds | binds more weakly | binds | binds more weakly
